The chains are these.
B1: PhnG (natural protein)
chain: MHADTATRQHWMSVLAHSQPAELAARLNALNITADYEVIRAAETGLVQIQARMGGTGERFFAGDATLTRAAVRLTDGTLGYSWVQGRDKQHAERCALIDALMQQSRHFQNLSETLIAPLDADRMARIAARQAEVNASRVDFFTMVRGDNA
B2: PhnJ (natural protein)
chain: MANLSGYNFAYLDEQTKRMIRRAILKAVAIPGYQVPFGGREMPMPYGWGTGGIQLTASVIGESDVLKVIDQGADDTTNAVSIRNFFKRVTGVNTTERTDDATVIQTRHRIPETPLTEDQIIIFQVPIPEPLRFIEPRETETRTMHALEEYGVMQVKLYEDIARFGHIATTYAYPVKVNGRYVMDPSPIPKFDNPKMDMMPALQLFGAGREKRIYAVPPFTRVESLDFDDHPFTVQQWDEPCAICGSTHSYLDEVVLDDAGNRMFVCSDTDYCRQQSEAKNQ
B3: PhnI (natural protein)
chain: MYVAVKGGEKAIDAAHALQESRRRGDTDLPELSVAQIEQQLNLAVDRVMTEGGIADRELAALALKQASGDNVEAIFLLRAYRTTLAKLAVSEPLDTTGMRLERRISAVYKDIPGGQLLGPTYDYTHRLLDFTLLANGEAPTLTTADSEQQPSPHVFSLLARQGLAKFEEDSGAQPDDITRTPPVYPCSRSSRLQQLMRGDEGYLLALAYSTQRGYGRNHPFAGEIRSGYIDVSIVPEELGFAVNVGELLMTECEMVNGFIDPPGEPPHFTRGYGLVFGMSERKAMAMALVDRALQAPEYGEHATGPAQDEEFVLAHADNVEAAGFVSHLKLPHYVDFQAELELLKRLQQEQNHG

The target in the data set “PhnI” is B3. The experiment in a line: crystal structure.
The data set “crystal structure” concerns the molecule itself. The experiment in a line: crystal structure.

As to B1, the binding result in the data set with PhnI is reported as “binds”.

Regarding B2, the binding result with PhnI is “binds”.

What is called stoichiometry N is the number of molecules, sites or subunits per partner or assembly. On to B3, for which the “stoichiometry N” value in “crystal structure” came to 2.
